From paper PMC4328750 (EMBO Reports, 2014)

Biological target: purified recombinant endophilin A1-SH3 (ITC and NMR) (UniProt O35179 291-352)
Experiment: ITC

purified recombinant endophilin A1-SH3 (ITC and NMR), sequence (O35179 291-352): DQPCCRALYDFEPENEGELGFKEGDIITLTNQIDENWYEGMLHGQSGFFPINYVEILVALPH

B1: purified recombinant intersectin 1-SH3B (ITC and NMR) (domain or fragment)
chain: LQAQALYPWRAKKDNHLNFNKNDVITVLEQQDMWWFGEVQGQKGWFPKSYVKLIS
Kd: ~30 µM
stoichiometry N: 1
